Results taken from paper doi:10.1101/093054 (bioRxiv, 2016).

T1: SPD-5::TagRFP (C. elegans, UniProt P91349 1-1198)
T1 sequence (looked up): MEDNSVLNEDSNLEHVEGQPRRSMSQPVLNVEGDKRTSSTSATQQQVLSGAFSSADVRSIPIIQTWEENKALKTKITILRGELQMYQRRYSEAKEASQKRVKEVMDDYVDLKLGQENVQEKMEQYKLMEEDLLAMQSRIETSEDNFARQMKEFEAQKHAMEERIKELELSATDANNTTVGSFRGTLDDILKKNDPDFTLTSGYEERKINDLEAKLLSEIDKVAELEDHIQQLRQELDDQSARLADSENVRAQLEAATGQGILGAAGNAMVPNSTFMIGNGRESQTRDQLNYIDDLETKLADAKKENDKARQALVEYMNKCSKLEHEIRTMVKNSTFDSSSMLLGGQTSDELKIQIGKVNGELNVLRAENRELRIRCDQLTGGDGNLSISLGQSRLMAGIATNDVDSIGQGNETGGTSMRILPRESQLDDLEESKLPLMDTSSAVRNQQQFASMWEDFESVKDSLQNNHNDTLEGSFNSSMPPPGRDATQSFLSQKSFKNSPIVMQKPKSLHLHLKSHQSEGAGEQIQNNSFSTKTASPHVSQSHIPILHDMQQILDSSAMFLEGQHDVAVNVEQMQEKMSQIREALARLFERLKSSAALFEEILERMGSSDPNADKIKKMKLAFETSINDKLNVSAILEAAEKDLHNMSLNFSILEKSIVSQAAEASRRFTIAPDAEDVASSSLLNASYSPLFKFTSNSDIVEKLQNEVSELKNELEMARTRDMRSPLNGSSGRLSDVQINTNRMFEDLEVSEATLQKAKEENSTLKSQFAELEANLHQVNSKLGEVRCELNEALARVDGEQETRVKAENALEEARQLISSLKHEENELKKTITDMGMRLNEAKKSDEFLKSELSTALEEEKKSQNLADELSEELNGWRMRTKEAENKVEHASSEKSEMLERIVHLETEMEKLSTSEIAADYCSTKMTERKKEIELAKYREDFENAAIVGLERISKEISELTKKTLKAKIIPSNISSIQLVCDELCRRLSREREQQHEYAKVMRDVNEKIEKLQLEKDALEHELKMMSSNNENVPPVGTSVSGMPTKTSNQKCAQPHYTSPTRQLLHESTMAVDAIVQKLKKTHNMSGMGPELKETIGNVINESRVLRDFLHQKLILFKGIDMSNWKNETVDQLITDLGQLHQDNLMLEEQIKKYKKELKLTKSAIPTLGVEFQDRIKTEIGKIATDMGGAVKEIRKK

T2: SPD-5::TagRFP (C. elegans), P91349
T2 chain: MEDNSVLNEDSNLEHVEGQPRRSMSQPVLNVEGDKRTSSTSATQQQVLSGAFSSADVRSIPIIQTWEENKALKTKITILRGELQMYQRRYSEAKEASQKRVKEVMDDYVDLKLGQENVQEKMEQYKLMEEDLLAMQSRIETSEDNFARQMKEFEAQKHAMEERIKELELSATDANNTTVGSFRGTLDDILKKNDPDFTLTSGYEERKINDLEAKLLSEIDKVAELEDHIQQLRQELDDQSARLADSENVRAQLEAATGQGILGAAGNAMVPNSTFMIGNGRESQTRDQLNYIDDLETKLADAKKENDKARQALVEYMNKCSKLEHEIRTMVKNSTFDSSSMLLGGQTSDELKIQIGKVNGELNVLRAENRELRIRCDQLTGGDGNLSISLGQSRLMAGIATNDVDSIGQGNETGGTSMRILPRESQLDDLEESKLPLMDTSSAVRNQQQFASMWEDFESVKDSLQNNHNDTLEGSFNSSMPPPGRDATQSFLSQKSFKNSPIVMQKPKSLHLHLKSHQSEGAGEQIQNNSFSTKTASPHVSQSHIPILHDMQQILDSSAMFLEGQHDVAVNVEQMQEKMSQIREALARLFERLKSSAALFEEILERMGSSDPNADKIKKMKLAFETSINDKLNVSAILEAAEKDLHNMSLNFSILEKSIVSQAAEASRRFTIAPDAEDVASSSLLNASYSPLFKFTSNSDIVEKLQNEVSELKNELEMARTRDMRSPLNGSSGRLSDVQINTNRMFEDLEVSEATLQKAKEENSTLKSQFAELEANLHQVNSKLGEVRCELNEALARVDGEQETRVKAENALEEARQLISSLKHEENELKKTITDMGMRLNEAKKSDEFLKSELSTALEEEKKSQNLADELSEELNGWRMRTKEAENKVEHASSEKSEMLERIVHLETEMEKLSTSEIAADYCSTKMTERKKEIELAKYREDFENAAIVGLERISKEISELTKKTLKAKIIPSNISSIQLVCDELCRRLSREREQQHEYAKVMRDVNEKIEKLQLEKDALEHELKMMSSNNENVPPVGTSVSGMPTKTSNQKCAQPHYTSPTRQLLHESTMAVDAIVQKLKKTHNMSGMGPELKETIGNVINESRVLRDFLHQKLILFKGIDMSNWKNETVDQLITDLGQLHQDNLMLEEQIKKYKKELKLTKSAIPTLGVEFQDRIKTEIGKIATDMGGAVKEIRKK


How the values were obtained:
SPD-5::TagRFP = target: T1, SPD-5::TagRFP; test: partitioning into droplets by fluorescence microscopy
[1] = target: T2, SPD-5::TagRFP (C. elegans), P91349; test: as above; settings: remark: other sources report otherwise

Molecule | partition coefficient (droplet vs. bulk) (SPD-5::TagRFP) | partition coefficient (droplet vs. bulk) [1]
PLK-1::GFP, P34331 1-648 (enzyme) MNRLPNIAKPPQKSNQRKEKAPPEVPALIADKDRGTYYEKGRFLGKGGFAHCYELTNRATREVVAGKVVPKSMLVKQYQRDKMTQEVQIHRELGHINIVKLFNFFEDNLNVYITLELCARRSLMELHKRRKAVTEPEARYFTHQIVDGVLYLHDLNIIHRDMKLGNLFLNDDLVVKIGDFGLATTVNGDERKKTLCGTPNYIAPEVLNKAGHSFEVDIWAVGCILYILLFGQPPFESKSLEETYSRIRHNNYTIPSIATQPAASLIRKMLDPEPTRRPTAKQVQRDGFFKSGFMPTRLPVSCLTMVPKFGGHETSMMEENVAPRGVDARSQRPLNGRAGLSALPQHIVSNNADRERAQQQAAEATFREPEDAYLSQLFHQVAVLLEQRIPGLEEEEAALDGYQSPECLPVFWISKWVDYSDKYGIGYQLCDNSVGVLFNDNSRIMLDQAGNELTYIEKSNKEHYFSMHSGEMPGLLNKKVTLLKYFRSYMNDHLVKAGEGSEQRAGDDLARLPTLRVWFRTKSAIVLHLSNGTVQINFFNDHVKMMMCPLMQAVTFIDQNKRMLTYKLNNLQRNGCPEKFLHRLKYAKTMIERLMSDANVVSQNPARQPDMPRSMAAARSASAGSRGPNQAASHLPQSASGSNIHPRR | – | 19.8
EB1-GFP (natural protein, UniProt Q15691 1-268, looked up) MAVNVYSTSVTSDNLSRHDMLAWINESLQLNLTKIEQLCSGAAYCQFMDMLFPGSIALKKVKFQAKLEHEYIQNFKILQAGFKRMGVDKIIPVDKLVKGKFQDNFEFVQWFKKFFDANYDGKDYDPVAARQGQETAVAPSLVAPALNKPKKPLTSSSAAPQRPISTQRTAAAPKAGPGVVRKNPGVGNGDDEAAELMQQVNVLKLTVEDLEKERDFYFGKLRNIELICQENEGENDPVLQRIVDILYATDEGFVIPDEGGPQEEQEEY | 3.2 | –
GFP::SPD-2 (natural protein, C. elegans, UniProt P91870 1-824, looked up) MEDDAPMNLCNEQFEEIEDSPIDDNDNESFYNADGDVELEEEEVHETPKNFKNGGRFKTNMTNPKVNDLTTIEEKNEDLRSAASSRSASRPASVMSDKSFSSQFEFQSGGENAIEEYTNQVFADENKADLLFPETSKFMNGASPPKDKHHSWEPSIHHYDKQPPPDIQTNSPVFGNLNHRKNKLIPQARAKPGANDNEIVERDNDENVPTTSDKSAFITSPMNSTNHDEKTSTPKRPTNRKIGQYQGPNFDLSSIYVGSPQHQNTSISTGQQMPTSSYSHAHSETMMTNQTINESMVRRVLNGNNKNQDLFAALEEARKRRAAQPSKPDFRINTTRTRVPIKPTSARHSGNVVSSTSNDNTTAASSKDLTTSRKAMETFRQNASMADATNSNTASMTSILSTISTARTDISRSSRNHGGGFSNTSVSTVIPANNGNVSLSHGRDGRDSVSSVRTMSRASSTSTVYAGSTFSGVSKPLRIHAKRVAFGCVAVGETLRVEVEVENISDRQCLVRASTDSTTPVYQILDNKLTMVDPKKSIKFQVSFSPSSVGRYQVIMSIEVPAQNFIHKIPMWGNGGIAKFVPTSPDLQQTINQSEYAMCTSCAKRISFKISNSAGTRDGFAMIKVFDSAMRQLPDGCVAFFPAPGFIVKKKSDKRVDIRIDSSYIDLHDENNFRTSSSLSTASTTSSFQRRILPGAKFFVHVVWGEETMRTRLRLLEVRTGQHQLIDGHDFTSFQFSDEEVLRAVPVGFPAIKPEDRDLFAASYRSFFINFFTSTTEFRAATSRKKKEICSNDDSTLLETTAFRNQTFVNDVTIVPNTRFSNRK | 67 | –

The remaining lines, values ahead:

partition coefficient (droplet vs. bulk) (SPD-5::TagRFP) | partition coefficient (droplet vs. bulk) [1] | Molecule
59 | – | TPXL-1::GFP (natural protein)
101 | – | ZYG-9::GFP (natural protein, C. elegans, UniProt G5EEM5 1-1415, looked up) MSNWDYLDEVDILPKLPPNFDELRESKKWQERKEALEALLKVLTDNERLSTKASYAELIGHLQMVLAKDANINCQALAAKCIGKFATGLRAKFSSFAGPLLPVIFEKMKEKKPMLREPLVDCSNEVGRTMQSLETGQEDILAALAKPNPQIKQQTALFVARQLDLVVPAKQPKGFIKAVVPVFGKLTGDADQDVREASLQGLGAVQRIIGDKNVKNLLGDASSDEGKMKKIGEYAEKSTASFAEEQAKNAPPVAPTSSTPSASAASGDPSGGTATAVVSSGAPVAEADPWDFLDAFDVLSKMPDGFDTNIESKKWQERKEALEGLLQLITANPKLDPKANYGALVERLQKVLEKDANINVAALAANCITGIANGLRTKFQPFAVSVTPIIFEKFKEKKPTLRDPLVACIDAVVATTNLEAVGEIVLAALGKPNPSIKTQTDLFLQRCFMKLNSQTMPKKTLKTLIPSLIKHSGDSDSEVREASYAAMGAMMRAIGEKPSLQLLADIASDNLKMSKIKEFHQKALDEAGPAEIAEMVKSIHKADAPPAAAPPKKTAPPKKQPEDEEVVEEEDEPLKPPPGDKKKKVPVKENEENEPPVVAPKAELLLSDNEDKKQRIKEEKQLKLVKWNFQAPTDEHISQLQTLLGNQAKVSLMSQLFHKDFKQHLAALDSLVRLADTSPRSLLSNSDLLLKWCTLRFFETNPAALIKVLELCKVIVELIRDTETPMSQEEVSAFVPYLLLKTGEAKDNMRTSVRDIVNVLSDVVGPLKMTPMLLDALKSKNARQRSECLLVIEYYITNAGISPLKSLSVEKTVAPFVGDKDVNVRNAAINVLVACFKFEGDQMWKAAGRMADKDKSLVEERIKRTGVKPGSGVVTSPPTGGPKILVPQQQGSVVRRPASRSRTREPEPEEVQSDTFTIRQDTMPPKTSSRYALRDDVFSSAMGRLDGTQVITPPQPVNGWSNNTFQMKRTNSSSSISSIDTSDQIQRSINNISSSLADVAQDAMFQVTYVLNQPEQRHLVDRRADLVFRASAAQLDLVIEEFNAGRDVSGTMDACTQMLFILMGGVETEHGLEPLNASPDTVKAIISSVLRCIIQIGNTESGYGMARSLNRLAMRLIYRVELSNLLCGLILAMTESLQMNTGITELVSKLSSKWCDELEKRRAQLRASDIVDSFNAFYVCALTELKMDISDSHILIVDNYLERVILQQGDVVLDAARRLSRPHMHLTSMINKILQMMRERKIDPIMPGTLEARMPQEDEAVVVRSGVQVSIDNILRDTSMAVKHIEQLNILIASSDRSWNEYMEYLKNNPMGELIKELVGECSRKKRIDFNLSHVVKSSMAVFKAMAATGPVQEEGRITPTDINRMDTMIVGTPLSRGDATITRARGNMIRPKRTTLSRDQMANIRHTLDRVKNH
